According to PMC10078426:
pKd: −log10 of the molar value.

Experiments:
[1] = biological target: human IgG from serum (human) [IgG part: P01857]; assay: SPR; preparation #1
[2] = biological target: human IgG from serum (human) [IgG part: P01857]; assay: SPR; preparation #2
[3] = biological target: human IgG from serum (human) [IgG part: P01857]; assay: SPR

| Substance | pKd [1] | pKd [2] | pKd [3] |
| --- | --- | --- | --- |
| protein G: β-galactosidase fusion protein (from UniProt P19909) | 7.48 | 7.38 | – |
| protein G:HRP (from UniProt P19909) | – | – | 7.72 |
